In assay [1] the target is PSMA on PC3-PIP (PSMA+) prostate cancer cells (Homo sapiens, UniProt Q04609). The experiment in a line: cell-based or functional assay.
Assay [2] has as its target purified extracellular domain of PSMA (prostate-specific membrane antigen), residues 44–750 (human, UniProt Q04609). The experiment in a line: SPR; ProteOn XPR36 chip; each NB (0.2 μg) immobilised by amine coupling (sulfo-NHS/EDC, 10 mM sodium acetate pH 5.0); soluble PSMA flowed at 25 μL/min (25-3200 pM for NB7; 2.94-47.00 nM for NB8, NB13, NB37); dissociation in PBST (0.005% Tween); BSA surface subtracted; Langmuir 1:1 kinetic model; 25 °C. The note with it: both partners purified.

Sequence of PSMA on PC3-PIP (PSMA+) prostate cancer cells (Q04609 whole entry, the tested form may be a part): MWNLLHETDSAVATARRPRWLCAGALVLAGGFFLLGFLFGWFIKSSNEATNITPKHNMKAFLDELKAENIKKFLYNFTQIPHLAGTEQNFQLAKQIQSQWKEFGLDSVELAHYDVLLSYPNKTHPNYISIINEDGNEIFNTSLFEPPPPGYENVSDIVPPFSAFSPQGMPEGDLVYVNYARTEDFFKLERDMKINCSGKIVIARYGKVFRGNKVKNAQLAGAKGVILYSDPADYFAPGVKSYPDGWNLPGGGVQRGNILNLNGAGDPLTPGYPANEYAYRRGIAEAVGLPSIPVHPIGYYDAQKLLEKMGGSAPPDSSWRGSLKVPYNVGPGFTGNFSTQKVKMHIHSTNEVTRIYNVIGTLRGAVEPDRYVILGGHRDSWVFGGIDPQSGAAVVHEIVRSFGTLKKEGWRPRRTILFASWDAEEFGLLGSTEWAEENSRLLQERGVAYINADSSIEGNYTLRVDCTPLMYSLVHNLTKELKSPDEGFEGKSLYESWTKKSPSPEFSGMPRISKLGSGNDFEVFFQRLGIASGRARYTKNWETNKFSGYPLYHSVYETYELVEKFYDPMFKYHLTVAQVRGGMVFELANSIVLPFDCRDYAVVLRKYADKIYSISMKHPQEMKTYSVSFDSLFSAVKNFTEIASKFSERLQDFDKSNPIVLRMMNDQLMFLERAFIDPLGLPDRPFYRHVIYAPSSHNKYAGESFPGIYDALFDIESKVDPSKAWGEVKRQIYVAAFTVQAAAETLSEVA
Sequence of purified extracellular domain of PSMA (prostate-specific membrane antigen), residues 44–750 (Q04609 44-750): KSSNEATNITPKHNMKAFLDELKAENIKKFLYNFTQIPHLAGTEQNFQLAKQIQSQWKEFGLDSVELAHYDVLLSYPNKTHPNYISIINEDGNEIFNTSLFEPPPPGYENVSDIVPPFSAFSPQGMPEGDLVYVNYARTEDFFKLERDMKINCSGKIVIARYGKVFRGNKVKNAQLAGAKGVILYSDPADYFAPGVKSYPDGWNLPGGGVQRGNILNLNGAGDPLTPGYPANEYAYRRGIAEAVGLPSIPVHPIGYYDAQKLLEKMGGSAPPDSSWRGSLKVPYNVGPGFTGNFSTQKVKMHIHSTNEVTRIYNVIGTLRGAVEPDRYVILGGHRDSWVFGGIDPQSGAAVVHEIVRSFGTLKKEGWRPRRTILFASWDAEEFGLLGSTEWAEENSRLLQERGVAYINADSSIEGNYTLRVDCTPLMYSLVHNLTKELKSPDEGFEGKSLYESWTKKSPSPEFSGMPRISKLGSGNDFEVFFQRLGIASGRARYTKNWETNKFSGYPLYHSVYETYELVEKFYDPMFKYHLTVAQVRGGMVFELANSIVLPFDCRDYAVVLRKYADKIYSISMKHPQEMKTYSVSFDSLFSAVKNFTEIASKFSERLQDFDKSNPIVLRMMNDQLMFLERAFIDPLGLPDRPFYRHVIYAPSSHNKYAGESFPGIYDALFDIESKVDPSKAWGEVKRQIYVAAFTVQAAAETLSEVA

B1: NB13 (VHH)
VHH: QVQLQESGGGSVQTGGSLRLSCAASGYTASFSWIGYFRQAPGKEREGVAVINVGVGSTYYADSVKGRFTISRDNTENTISLEMNSLKPEDTGLYYCAGSLRWSRPPNPISEDAYNYWGQGTQVTVSS
In the case of B1, the “whole-body NIR imaging of mice with PC3-PIP xenografts, AF680-labelled NB: duration until the fluorescent signal was no longer detected” value in assay [1] came to 32 h. In assay [2], this molecule came in with a Kd of 0.6 nM, a koff of 2.2e-05 s⁻¹ and a kon of 36000 M⁻¹ s⁻¹.

B2: NB7 (VHH)
VHH: QVQLQESGGGSVQAGGSLRLSCTAPGYTDSNYYMSWFRQAPGKEREWVAGVNTGRGSTSYADSVKGRFTISQDNAKNTMFLQMNSLKPEDTAIYYCAVAACHFCDSLPKTQDEYILWGQGTQVTVSS
Turning to B2, in assay [2], binding was put at a Kd of 0.055 nM, the koff came to 3.9e-05 s⁻¹ and the kon came to 710000 M⁻¹ s⁻¹.

B3: NB37 (VHH)
VHH: QVQLQESGGGSVEAGGSLRLSCARSGWPYSTYSMNWFRQAPGKEREAVAGISSTMSGIIFAESKAGQFTISQDNAKNTVYLQMNNLKPEDTAIYYCAARRDYSLSSSSDDFDYWGQGTQVTVSS
B3: the “whole-body NIR imaging of mice with PC3-PIP xenografts, AF680-labelled NB: duration until the fluorescent signal was no longer detected” value in assay [1] turned out to be 24 h. Moreover, in assay [2], binding was characterised by a dissociation constant (Kd) of 3.4 nM, the koff was 7.5e-05 s⁻¹ and the kon turned out to be 22000 M⁻¹ s⁻¹.

B4: NB8 (VHH)
VHH: QVQLQESGGGSVQAGGSLRLSCARSGWPYSTYSMNWFRQAPGKEREAVAGISSTMSGIIFAESKAGQFTISQDNAKNTVYLQMNNLKPEDTAIYYCAARRDYSLSSSSDDFDYWGQGTQVTVSS
Turning to B4, the “whole-body NIR imaging of mice with PC3-PIP xenografts, AF680-labelled NB: duration until the fluorescent signal was no longer detected” value in assay [1] stood at 32 h. In assay [2], this molecule had a Kd of 6 nM, a koff of 0.00012 s⁻¹ and a kon of 20000 M⁻¹ s⁻¹.

(Values after paper PMC7383930 (Journal of Medicinal Chemistry, 2020).)
